Laboratory results published in patent US20260166154A1, “METHODS FOR TREATING OBESITY” (AMGEN INC., priority 2022, published 2026).

How the values were obtained:
[1] = Phase 1 SAD/MAD clinical study (NCT04478708): pharmacokinetics; type: in vivo, human
Excerpt: (§1) Enrollment into the SAD and MAD cohorts was sequential.
(§2) No missing data was imputed.

[2] = Phase 1 SAD/MAD clinical study: body weight, BMI, waist circumference; type: in vivo, human; settings: for decrease in body weight: MAD 420 mg Q4W
Procedure: Eligible participants were women of non-reproductive potential and men aged 18 to 65 years with a body mass index (BMI) between 30.0 kg/m2 and 40.0 kg/m2 and HbA1c≤6.5% and/or a fasting glucose of […]125 mg/dl. Participants had normal vital signs, 12-lead electrocardiogram results and clinical laboratory tests at the time of randomization.
as §1, §2

[3] = Phase 1 MAD cohorts: pharmacodynamic markers (fasting glucose, glucagon, HbA1c, hs-CRP); type: in vivo, human; settings: for hs-CRP reduction: day 127
Excerpt: as §1, §2

[4] = Predicted exposure multiples based on NOAEL established in mice; design: species or system mouse; settings: NOAEL 150 mg/kg in mice
Excerpt: (§3) The rationale for dose selection for Part C is based on the available PK data from this ongoing FIH study cohorts 1 to 11 (Part A and Part B) and the NOAEL exposures established based on 13-week GLP repeat-dose studies in mouse and cynomolgus monkeys.

[5] = Predicted exposure multiples based on NOAEL established in cynomolgus monkeys; design: species or system cynomolgus monkey; settings: NOAEL 120 mg/kg in cynomolgus monkeys
Excerpt: as §3

[6] = Phase 1 SAD/MAD clinical study: safety and tolerability (TEAEs, vital signs)
Procedure: This was a first-in-human, double-blind, randomized, placebo-controlled study comprised of two parts: single ascending dose (SAD) and multiple ascending dose (MAD) in participants with obesity.
Participants were randomly assigned to receive AMG133 or placebo in a ratio of 3:1. […] The MAD evaluated 3 doses given every 4 weeks on Days 1, 29 and 57. […] Enrollment into the SAD and MAD cohorts was sequential. Subsequent cohorts were dosed after the dosing regimen in the preceding cohort had been recommended by the Dose Level Review Team (DLRT) to be safe and well tolerated based on the safety and laboratory data through at least day 15. […] Placebo was provided as normal saline, the volume matching the investigational drug at each dose level.
The primary endpoints were the participant incidence of treatment-emergent adverse events, changes in laboratory safety tests, vital signs, and 12-lead electrocardiograms. […] The exploratory endpoints were pharmacodynamic parameters including, but not limited to, concentrations of fasting glucose, insulin, c-peptide, glucagon,, hemoglobin A1c, changes in body weight, waist circumference, and BMI.
The sample size for this trial was not based on any statistical inferences. As the trial was an exploratory first-in-human study with a small sample size, all pharmacokinetic, pharmacodynamic and safety parameters were analyzed descriptively. Participants who withdrew from the study prior to day 15 in the SAD or day 36 in the MAD were replaced so that the target numbers of participants for safety review and data collection would be achieved; replacement participants were assigned to receive the same treatment as the withdrawn participant. […] The safety analysis set was the same as the full analysis set. […] No missing data was imputed.

[7] = Intact AMG 133, cohort 12, 420 mg SC
[8] = Intact AMG 133, cohort 13, 420 mg SC
[9] = Total AMG 133, cohort 12, 420 mg SC
[10] = Total AMG 133, cohort 13, 420 mg SC

## maridebart cafraglutide [AMG 133]
[1]; doses 21 mg to 840 mg
  dose proportionality of pharmacokinetics: dose-proportional
[1]; preliminary review, FIH SAD and MAD, AUC data pending
  pharmacokinetics linearity based on Cmax: linear, dose proportional kinetics
[2]; MAD 140 mg Q4W, after 3 doses, day 78
  maximal reduction of body weight from baseline: 7.44%
[2]; MAD 140 mg Q4W, post-dose day 7
  reduction of body weight from baseline: 1.97%
[2]; MAD 140 mg and 420 mg
  waist circumference: dose-dependent decrease
[2]; MAD 280 mg
  waist circumference: fluctuations in waist circumference changes
[2]; day 7
  decrease in body weight: −4.86%
[2]; day 85
  decrease in body weight: −14.5%
[2]; MAD cohorts, multiple doses
  duration of body weight reduction: maintained until end of study day 207
[2]; SAD and MAD
  change from baseline in BMI: followed a similar pattern as the change in body weight
[2]; all SADs except lowest dose 21 mg
  duration of body weight decrease: maintained until day 150
[2]; all dose levels (SADs and MADs)
  change in mean body weight from baseline: decreases in mean body weight from baseline
[2]; single dose 21 mg, day 29
  maximal decrease of body weight from baseline: 2.39%
[2]; single dose 21 mg, post-dose day 6
  mean percent change of body weight from baseline: −1.59%
[2]; single dose 840 mg, day 6
  mean percent change of body weight from baseline: −2.85%
[2]; single dose 840 mg, day 92
  maximal decrease of body weight from baseline: 8.24%
[3]; MAD 140 mg
  hs-CRP reduction: normalized to baseline
[3]; MAD 280 mg, day 85 and day 127
  glucagon: greatest reduction in glucagon was observed at day 85 which normalized by day 127
[3]; MAD 420 mg, safety follow up (day 127)
  fasting glucose: lower glucose levels were maintained
[3]; MAD 140 and 280 mg, safety follow up (day 127)
  fasting glucose: returned to above baseline
[3]; MAD 140 and 420 mg, day 29 and 85
  fasting glucose: decreased in a dose-responsive manner
[3]; MAD 280 and 420 mg
  hs-CRP reduction: sustained until day 127
[3]; MAD cohorts
  hs-CRP change from baseline: dose-responsive decrease
[3]; MAD, all three dose groups, normal range at baseline
  HbA1c levels: decreased in all three dose groups but trended towards baseline at day 127
[4]; [7]
  Predicted Exposure Multiples Mouse AUC: ~42.4 fold
  Predicted Exposure Multiples Mouse Cmax: ~43 fold
[4]; [8]
  Predicted Exposure Multiples Mouse AUC: ~40.6 fold
  Predicted Exposure Multiples Mouse Cmax: ~41.3 fold
[4]; [9]
  Predicted Exposure Multiples Mouse AUC: 51 fold
  Predicted Exposure Multiples Mouse Cmax: 54.3 fold
[4]; [10]
  Predicted Exposure Multiples Mouse AUC: ~47.5 fold
  Predicted Exposure Multiples Mouse Cmax: ~50.9 fold
[5]; [8]
  Predicted Exposure Multiples Monkey AUC: ~43.2 fold
[5]; [9]
  Predicted Exposure Multiples Monkey AUC: 48.9 fold
[5]; [10]
  Predicted Exposure Multiples Monkey AUC: ~45.5 fold
[6]; MAD cohorts
  heart rate: the 280 mg cohort had higher heart rates than the 140 mg or 420 mg cohort
  nausea and vomiting: all participants who received AMG 133 experienced mild nausea and vomiting
[6]; MAD cohorts 7 to 10, after the first dose
  subjects reporting mild GI-related adverse events (mainly nausea, vomiting, diarrhea): Approximately 90%
[6]; MAD cohorts 7 to 10, after the second dose
  subjects experiencing GI-related adverse events: less than 5%
[6]; MAD cohorts 7 to 10, any dose
  serious adverse events or deaths: no serious adverse events or deaths reported after any of the doses
[6]; MAD trial
  subjects who discontinued the study prior to receiving the second dose: Approximately 26%
[6]; SAD and MAD
  serious TEAEs, TEAEs leading to permanent discontinuation, severe TEAEs: No serious TEAEs, TEAEs leading to permanent discontinuation, or severe TEAEs were reported
[6]; SAD and MAD participants
  tolerability: tolerated AMG 133 well
[6]; SAD cohorts
  dyspepsia: more frequently reported with lower doses (70 mg and 140 mg)
  heart rate: increased with a single dose of 280, 560 or 840 mg AMG 133 but not in a dose-dependent manner
  nausea and vomiting: reported in participants treated with ≥70 mg AMG 133
  severity of GI-related TEAEs: all GI-related TEAEs were mild except one participant in the 140 mg cohort had moderate GI symptoms
[6]; SAD cohorts 1 to 6 and 11
  serious adverse events or deaths: no serious adverse events or deaths have been reported
[6]; cohort 9, after 420 mg dose on day 1
  subjects who withdrew consent due to GI-related adverse events: 50%
[6]; single dose or multiple doses
  blood pressure: No meaningful changes in blood pressure
